Our source for the fold reduction of affinity against wild type Orc6, binding result and Kd values is publication PMC3791464 (eLife, 2013).

In assay [1] the target is Drosophila ORC1–5 (ORC lacking Orc6), purified, 6×His-Orc1 and MBP–Orc4 (Drosophila melanogaster) (UniProt O16810). Briefly: fluorescence polarisation; fluorescence anisotropy, apparent Kd; 30 nM Orc6 N-terminally labelled with Alexa Fluor 488, ORC1–5 in twofold dilutions from 1 µM to 122 pM; 50 mM Tris HCl pH 7.8, 300 mM KCl, 5% glycerol, 1 mM DTT, 0.1 mg/ml BSA; 1 hr on ice; single-site fit with ligand depletion. Background: In fluorescence polarisation assays a small probe gives low polarisation when free and higher when bound to something large.

For assay [2], the target named is T1, Drosophila Orc1 in untagged recombinant ORC (Drosophila melanogaster, UniProt O16810 1-924).
T1 construct: Drosophila Orc1; source: High5 cells co-infected with six baculoviruses, co-purified (Ni, amylose, TEV, gel filtration); not shown: 6×His, N-terminal, cleaved
T1 sequence (looked up): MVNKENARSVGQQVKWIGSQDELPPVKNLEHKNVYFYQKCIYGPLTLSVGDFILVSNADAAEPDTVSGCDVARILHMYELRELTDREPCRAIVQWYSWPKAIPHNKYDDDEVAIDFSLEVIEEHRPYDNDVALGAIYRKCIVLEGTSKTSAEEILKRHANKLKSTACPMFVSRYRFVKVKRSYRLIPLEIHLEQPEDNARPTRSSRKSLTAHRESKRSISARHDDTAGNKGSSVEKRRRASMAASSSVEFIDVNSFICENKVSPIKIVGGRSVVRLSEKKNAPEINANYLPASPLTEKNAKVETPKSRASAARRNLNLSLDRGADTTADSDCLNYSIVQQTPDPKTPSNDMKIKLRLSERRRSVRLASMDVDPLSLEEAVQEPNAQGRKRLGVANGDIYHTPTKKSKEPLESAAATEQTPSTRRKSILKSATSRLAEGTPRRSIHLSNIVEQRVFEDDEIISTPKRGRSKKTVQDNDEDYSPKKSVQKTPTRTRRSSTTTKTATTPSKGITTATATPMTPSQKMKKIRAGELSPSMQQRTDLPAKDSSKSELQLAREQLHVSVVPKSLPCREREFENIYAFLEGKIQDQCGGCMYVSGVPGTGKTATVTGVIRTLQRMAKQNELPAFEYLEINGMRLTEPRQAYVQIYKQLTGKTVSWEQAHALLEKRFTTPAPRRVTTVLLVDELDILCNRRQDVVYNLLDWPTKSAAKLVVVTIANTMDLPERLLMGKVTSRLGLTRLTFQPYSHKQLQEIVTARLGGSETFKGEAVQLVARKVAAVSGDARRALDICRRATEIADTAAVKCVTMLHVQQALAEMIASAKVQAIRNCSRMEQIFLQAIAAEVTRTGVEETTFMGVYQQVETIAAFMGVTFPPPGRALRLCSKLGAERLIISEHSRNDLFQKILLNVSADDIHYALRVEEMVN
As to the kind of experiment: SEC; analytical gel filtration of purified, co-expressed untagged Drosophila ORC on a Superose 6 column; elutes as a hexamer of ~390 kDa. The conditions noted are these: both partners purified. Background: Size exclusion chromatography separates by hydrodynamic size, large species first.

Assay [3] addresses T2, Drosophila ORC1–5 (ORC lacking Orc6), purified, 6×His-Orc1 and MBP–Orc4 (Drosophila melanogaster, UniProt O16810 1-924; Q24168 1-618; Q7K2L1 1-721; Q9W102 1-459; Q24169 1-460).
T2 construct: Drosophila Orc1; Drosophila Orc2, untagged; Drosophila Orc3, untagged; Drosophila Orc4; Drosophila Orc5, untagged; source: High5 cells co-infected with five baculoviruses, purified (Ni, amylose, gel filtration; TEV step omitted); not shown: 6×His, N-terminal, kept; MBP, N-terminal, kept; copies: + + + +
Briefly: fluorescence polarisation; fluorescence anisotropy, apparent Kd; 30 nM Orc6 N-terminally labelled with Alexa Fluor 488, ORC1–5 in twofold dilutions from 1 µM to 122 pM; 50 mM Tris HCl pH 7.8, 300 mM KCl, 5% glycerol, 1 mM DTT, 0.1 mg/ml BSA; 1 hr on ice; single-site fit with ligand depletion. The conditions noted are these: both partners purified.

The target of assay [4] is T3, Drosophila ORC1–5 in MBP-tagged ORC for EM (6×His-Orc1, other subunits untagged) (Drosophila melanogaster, UniProt O16810 1-924; Q24168 1-618; Q7K2L1 1-721; Q9W102 1-459; Q24169 1-460).
T3 construct: Drosophila Orc1; Drosophila Orc2, untagged; Drosophila Orc3, untagged; Drosophila Orc4, untagged; Drosophila Orc5, untagged; source: High5 cells co-infected, co-purified with MBP–Orc6 187–257 (Ni, amylose, gel filtration; TEV step omitted); not shown: 6×His, N-terminal, kept; copies: + + + +
As to the kind of experiment: co-purification over several chromatography steps; MBP–Orc6 187–257 co-expressed with 6×His-Orc1 and untagged Orc2–Orc5 in High5 cells; Ni affinity, amylose affinity and gel filtration, TEV step omitted. The conditions noted are these: partners not purified.

For the molecule “Drosophila Orc6-Y225S, N-terminal 6×His (from UniProt Q9Y1B2 1-257) (natural protein)”, the fold reduction of affinity against wild type Orc6 in assay [1] is more than 100 fold.

B1: Drosophila Orc5 in untagged recombinant ORC (natural protein, Drosophila melanogaster, UniProt Q24169 1-460, looked up)
chain: MEAICSSLEPLFPCREAAIETLGELIGDSSETYPSAIYLFGHSGTGKTALTRAFLKECGKRQNVRTAHLNAIECYTTKIMLEILLDSLAPDQGDALKVDNMLDFVEQLRRQAATRVEDQGFLIAVDNAERLRDMDANVLPVLLRLQELTNLNLCVILLSQLPFEKFYNKTGLSEIVCLHLAQYNKAETQRILGSDFQQVRNQLLEQFAQDKKRLEICQEAVTEDFYNNYLNLFLSVFYKACRDVPELQLTARKCLSTYLEPVLDGTVDATDISRLWRHIAGPLRSALTQIYMRIEKPAEEVEDFTAIEDQSVRKLAQSLELPYYAKFLLIAAFLASHNAAKQDKRLFVKHHGKQRKRMQTVNARAKTTEKMSTTLGPKSFSIDRLLAIFYAILEEKVGLTCNLLSQISTLVHLNLLSFVSGEQNIMEGSARLQCTIGLEFVLQIGKVVGFNVRQYLCDFM
notes: Drosophila Orc5; the methods list Orc4 twice and leave Orc5 out of the untagged subunits; source: High5 cells co-infected with six baculoviruses, co-purified (Ni, amylose, TEV, gel filtration)
For B1, in assay [2], the binding result is on record as “binds”.

B2: Drosophila Orc3 in untagged recombinant ORC (natural protein, Drosophila melanogaster, UniProt Q7K2L1 1-721, looked up)
chain: MDPTISVSKGCFVYKNGATRAGKKAASKRKRPAAESSSLLGKEVVQQPFYEEYRKAWNQINDHIADLQHRSYARTLEQLVDFVVGQAERDTPDEVLPTAALLTGINQPDHLSQFTALTQRLHAQRAAMVCVLQSRDCATLKAAVETLVFGLVEDNAEVEQMEDEDEDEDGAERDRKRLRRSQCTMKQLKSWYTNNFDSEQKRRQLVVILPDFECFNASVLQDLILILSAHCGSLPFVLVLGVATAMTAVHGTLPYHVSSKIRLRVFQTQAAPTGLNEVLDKVLLSPKYAFHLSGKTFKFLTHIFLYYDFSIHGFIQGFKYCLMEHFFGGNAFALCTDYSKALGRIKQLTHEDMETIRRLPSFRPYVEQINDCKRIIAVLTDDDYLKKKLPQLLRDCLLHFLLFRCSLEFLTELVGDLPRCPLGKLRRELYVNCLNRAIISTPEYKECLQMLSFLSKDEFVAKVNRALERTEQFLVEEIAPLELGEACTAVLRPKLEAIRLAVDEVVKATMATITTTSPNETRQATDHLTPVASRQELKDQLLQRSKEDKMRHQLNTPTTQFGRALQKTLQLIETQIVQDHLRALQDAPPIHELFVFSDIATVRRNIIGAPRAALHTALNNPHFYMQCKCCELQDQSLLVGTLPDLSVVYKLHLECGRMINLFDWLQAFRSVVSDSDHEEVAQEQIDPQIQARFTRAVAELQFLGYIKMSKRKTDHATRLTW
notes: Drosophila Orc3, no purification tag; source: High5 cells co-infected with six baculoviruses, co-purified (Ni, amylose, TEV, gel filtration)
Take B2: the binding result in assay [2] was “binds”.

B3: Drosophila Orc2 in untagged recombinant ORC (natural protein, Drosophila melanogaster, UniProt Q24168 1-618, looked up)
chain: MSASNKGGYKTPRKENLMSIENLTNSEEESEDLNTAMVGNAVESQPKVTSRRSTRRPSPTKKYQAYQKESNGKGQEERIVVNYVEMSDERSSDAEDQEEEESIEESENAARPAAKDLHLIQSEYNVAGTSMFGFNTPKKRDAMALAALNATPCTPKTPKTPRLGVKTPDTKRKKSMDQPKTPAHVRTRVKKQIAKIVADSDEDFSGDESDFRPSDEESSSSSSSSDAGNSSDNDAADDEPKTPSRARRAIVVPVLPKTPSAARLRQSARAKKSNEFVPESDGYFHSHASSKILTSDHTLDRLKNPRLAADRVFSLLSEIKTSAEHEGSINAIMEEYRSYFPKWMCILNEGFNILLYGLGSKHQLLQSFHREVLHKQTVLVVNGFFPSLTIKDMLDSITSDILDAGISPANPHEAVDMIEEEFALIPETHLFLIVHNLDGAMLRNVKAQAILSRLARIPNIHLLASIDHINTPLLWDQGKLCSFNFSWWDCTTMLPYTNETAFENSLLVQNSGELALSSMRSVFSSLTTNSRGIYMLIVKYQLKNKGNATYQGMPFRDLYSSCREAFLVSSDLALRAQLTEFLDHKLVKSKRSVDGSEQLTIPIDGALLQQFLEEQEKK
notes: Drosophila Orc2, no purification tag; source: High5 cells co-infected with six baculoviruses, co-purified (Ni, amylose, TEV, gel filtration)
Consider B3, for which, in assay [2], the binding result is “binds”.

B4: Drosophila Orc6, full-length (1–257), N-terminal 6×His (natural protein, Drosophila melanogaster, UniProt Q9Y1B2 1-257, looked up)
chain: MTTLIEQLITKMGLREEPNVLEKTTELVRLLELRSTNVPLQINEYGKIVLCADLASCMIGIAFDKEQALKLSGLRKSQYLNNKRMFEKLLDLNKLASVNDICVQLGLNEVARKAEELMTLFKGVAATEDMGTDTSHPQYATMAVFQACRLLKKKVSKSKLMPFSNLRPSQFQLLEQQWERMIAKHHKESKVPSSTDMEGKLKENQNENIKGHEAKKAHKPPPEDYEIWKARMLAKAQAKLKELEASQSHMDSQLLEA
modifications: Alexa Fluor 488 on the N-terminus (only in the fluorescence anisotropy assay)
notes: Drosophila Orc6, residues 1-257; also called wild-type Orc6; Orc6 WT; source: High5 cells (baculovirus): in lysate of co-infected cells; also purified (HisTrap, gel filtration); not shown: 6×His, N-terminal, kept
Consider B4, for which the Kd in assay [3] was 5 ± 0.7 nM.

B5: Drosophila Orc6 in untagged recombinant ORC (natural protein, Drosophila melanogaster, UniProt Q9Y1B2 1-257, looked up)
chain: B4 chain
notes: Drosophila Orc6, no purification tag; source: High5 cells co-infected with six baculoviruses, co-purified (Ni, amylose, TEV, gel filtration)
As to B5, in assay [2], the binding result is “binds”.

B6: Drosophila Orc4 in untagged recombinant ORC (natural protein, Drosophila melanogaster, UniProt Q9W102 1-459, looked up)
chain: MPEADRELVSIRRFLKERLQRDYTTLRGYAKERSNVRLLLQRTAEMGESNSLLLLGPRGSGKTTLINSVLADLLPNKSFGENTLIVHLDGNLHTDDRVALKSITVQMQLENAADGKVFGSFAENLAFLLQCLKAGGKHSKSVIFILEEFDLFCAHHNQTLLYNLFDVSQSAQAPICVLGVTCRLDVIELLEKRVKSRFSHRQVFLFPSLRRFEDYVDLCRDLLSLPTGNSLLLAAEKIYNLQNIQSGALYFSRNHFDPGEYGFSPRLRDAWNKQICKVLATQQARSTLQALHDFDISEAYLKNFLFRLVAHLRPQSPHITAEKMAAVGSQFEGDDKIELLCGLSVLELCLIIAIKHHSQIYDRDSFNFEIIYARFSKFAKVSTTMQAVERSIVLKAFEHLRIAELIMPLTGGAGGGVGKVQKEFEMHKLALTYSQIHHCMQRYQALPTEVAQWAQSSLI
notes: Drosophila Orc4; source: High5 cells co-infected with six baculoviruses, co-purified (Ni, amylose, TEV, gel filtration); not shown: MBP, N-terminal, cleaved
In the case of B6, in assay [2], the binding result is listed as “binds”.

B7: Drosophila Orc6 C-terminal domain (187–257), N-terminal 6×His (domain or fragment, Drosophila melanogaster, UniProt Q9Y1B2 187-257, looked up)
chain: KESKVPSSTDMEGKLKENQNENIKGHEAKKAHKPPPEDYEIWKARMLAKAQAKLKELEASQSHMDSQLLEA
modifications: Alexa Fluor 488 on the N-terminus (only in the fluorescence anisotropy assay)
notes: Drosophila Orc6, residues 187-257 (C-terminal domain); not detected in Western blots of whole-cell extract, but seen in the pull-downs; also called Orc6 187–257; Orc6 CTD; source: High5 cells (baculovirus): in lysate of co-infected cells; also purified (HisTrap, gel filtration); not shown: 6×His, N-terminal, kept
Take B7: in assay [3], the Kd turned out to be 4.8 ± 0.6 nM.

B8: Drosophila MBP–Orc6 187–257 (domain or fragment, Drosophila melanogaster, UniProt Q9Y1B2 187-257, looked up)
chain: B7 chain
notes: Drosophila Orc6, residues 187-257; also called N-terminally MBP-tagged C-terminal domain of Orc6 (amino acids 187–257); MBP-fusion of the C-terminal domain of Orc6; source: High5 cells co-infected with the ORC1–5 subunits, co-purified (Ni, amylose, gel filtration); not shown: MBP, N-terminal, kept
Turning to B8, the binding result in assay [4] was “binds”.
